Data published in patent US20260234738A1 (Regeneron, published 2026).
Numbering of substitutions follows the chain as printed.

B1: mAb10998 (antibody, V domains shown)
VH: EVQLVESGGGLVHPGGSLRLSCAASGLTVSSNYMSWVRQAPGKGLEWVSVIYSGGSTYYADSVKGRFTISRHNSKNTLFLQMNSLRAEDTAVYYCARDRPITGTTLDVWGQGTTVTVSS
VL: DIQMTQSPSSLFASVGDRVTITCRASQSISSYLNWYQQKPGKAPKLLIYAASSLQSGVPSRFSGSGSGTDFTLTISSLQPEDFAFYYCQQTYSTPPITFGQGTRLEIK
B2: mAb11010 (antibody, V domains shown)
VH: QVQLVESGGGVVQPGRSLRLSCAASGFTFSSYGMHWVRQAPGKGLEWVAVISYDGSYKYYADSVKGRFTISRDNSKNTLYLQMNSLRAEDTAVYYCAIDGGTVTTIFDYWGQGTLVTVSS
VL: not shown
B3: mAb11002 (antibody, V domains shown)
VH: EVQLVESGGGLVQPGGSLRLSCAASGFTVSSNYMSWVRQAPGKGLEWVSVIYSGGSTFYADSVKGRFTISRHNSKNTLYLQMNSLRAEDTAVYYCAREGYGMDVWGQGTTVTVSS
VL: not shown
B4: mAb11004 (antibody, V domains shown)
VH: QVQLVESGGGVVQPGRSLRLSCVASGFTFSIYGMDWVRQAPGKGLEWVAVISYDGSNKYYADSVKGRFTISRDNSKNTLYLQMNSLRPEDTAVYYCAKDREAAADAFDIWGQGTMVTVSS
VL: DIQMTQSPSSVSASVGDRVTITCRASQGISSWLAWYQQKPGKAPKLLIYAASSLHSGVPSRFSGSGSGTDFTLTISSLQPEDFATYYCQQANSFRLTFGGGTKVEIK
B5: mAb11006 (antibody, V domains shown)
VH: EVQLVESGGGLVQPGGSLRLSCAASGFIVSRNYMSWVRQAPGKGLEWVSVIYSGGSTFYADSVKGRFTISRHNSKNTLYLQMNSLKAEDTAVYYCARELRGYFDYWGQGTLVTVSS
VL: DIQLTQSPSFLSASVGDRVTITCWASQGISSYLAWYQQKPGKAPKLLIYAASTLQSGVPSRFSGSGSGTEFTLTISSLQPEDFATYYCQLLNSYPYTFGQGTKLEIK
B6: mAb11008 (antibody, V domains shown)
VH: EVQLVESGGGLVQPGGSLRLSCAASGFTVSSNYMTWVRQAPGKGLEWVSVIYSGGSTFYADSVKGRFTISRHNSENTLYLQMNSLRAEDTAVYYCARDLAAAGTDYWGQGALVTVSS
VL: B5 VL with E81D, L90H, P95L
B7: mAb10978 (antibody)
heavy chain: QVQLVESGGGVVQPGRSLRLSCAASGFTFSSYAMHWVRQAPGKGLEWVAVISYDGSNKYYADSVKGRFTISRDNSKNTLYLQMNSLRAEDTAVYYCARDGRTITMVRGVIDDAFDIWGQGTMVTVSSASTKGPSVFPLAPCSRSTSESTAALGCLVKDYFPEPVTVSWNSGALTSGVHTFPAVLQSSGLYSLSSVVTVPSSSLGTKTYTCNVDHKPSNTKVDKRVESKYGPPCPPCPAPGGGGPSVFLFPPKPKDTLMISRTPEVTCVVVDVSQEDPEVQFNWYVDGVEVHNAKTKPREEQFNSTYRVVSVLTVLHQDWLNGKEYKCKVSNKGLPSSIEKTISKAKGQPREPQVYTLPPSQEEMTKNQVSLTCLVKGFYPSDIAVEWESNGQPENNYKTTPPVLDSDGSFFLYSRLTVDKSRWQEGNVFSCSVMHEALHNHYTQKSLSLSLGK
light chain: not shown
B8: mAb10971 (antibody, V domains shown)
VH: EVQLVESGGGLIQPGGSLRLSCAASGVTVSSNYMSWVRQAPGKGLEWVSVIYSGGSTFYSDSVKGRFSISRDNSKNTLYLQMNSLRAEDTAVYYCARDLYYYGMDVWGQGTTVTVSS
VL: DIQLTQSPSFLSASVGDRVTITCRASQGISTYLAWYQQKPGKAPKLLIYAASTLQSGVPSRFSGSGSGTEFTLTISSLQPEDFATYYCQQLDSYPGLTFGGGTKVEIKR
B9: mAb10957 (antibody, V domains shown)
VH: B8 VH with I12V, S60A, S68T, Y79F, A87I, Y100G, Y101P
VL: B8 VL with T31S, E70Q, T72I, D92N, L97F, G101P, E106D
B10: mAb10956 (antibody, V domains shown)
VH: B8 VH with I12V, V27L, S60A, S68T, Y100I, Y101K
VL: not shown
B11: mAb10965 (antibody, V domains shown)
VH: EVQLVESGGGLIQPGGSLRLSCAASVFTVSYNYMSWVRQAPGKGLEWVSVIYSGGSTYYADSVKGRFTISRDNSKNTLYLQMNSLRAEDTAVYYCARALPGWGGSFEYFDYWGQGTLVTVSS
VL: not shown
B12: mAb10967 (antibody, V domains shown)
VH: EVQLVESGGGLVQPGGSLRLSCAASGFTVSSNYMSWVRQAPGKGLEWVSVIYPGGSTFYADSVKGRFTISRDNSKNTLYLQMNSLRAEDTAVYYCARDQRDFAWGQGTLVTVSS
VL: DIQMTQSPSSLSASVGDRVTITCQASQDISNYLNWYQQKPGKAPKLLIYDASNLETGVPSRFSGSGSGTDFTFTISGLQPEDIATYYCQQYDNLPPTFGQGTRLEIKR
B13: mAb10954 (antibody, V domains shown)
VH: EVQLVESGGGLVQPGGSLRLSCAASGITVSSNYMSWVRQAPGKGLEWVSLIYSGGSTYYADSVKGRFTISRDNSKNTLYLQMNSLRVEDTAVYYCARDHGMAAAGYNYWGQGTLVTVSS
VL: B12 VL with S30N, N31K, S76N, G77S, I83F, Y87F, T97A, R103K, L104V
B14: mAb10955 (antibody, V domains shown)
VH: EVQLVESGGGLVQPGGSLRVSCAASGFTVSRNYMSWVRQAPGKGLEWVSVIYSGGSTFYADSVKGRFTISRDNSKNTLYLQMNSLRAEDTAIYYCARYIPRFDPWGQGTLVTVSS
VL: B12 VL with Y36F, K42R, G77S, P96I
B15: mAb10985 (antibody, V domains shown)
VH: EVQLVESGGGLVQPGRSLRLSCAASGFTFDDYAMHWVRQAPGKGLEWVSGISWNRGSIGYADSVKGRFTISRDNAKNSLYLQMSSLRAEDTALYYCAKDGERWDSVVVPSARNGMDVWGQGTTVTVSS
VL: QSVLTQPPSVSGAPGQRVTISCTGSSSNIGAGYDVHWYQQLPGTAPKLLIYGNSNRPSGVPDRFSGSKSGTSASLAITGLQAEDEADYYCQSYDSSLSGSYVFGTGTKVTVLG
B16: mAb10966 (antibody, V domains shown)
VH: EVQLVESGGGLVQPGGSLRLSCAASGLTVSSNYMSWVRQAPGKGLEWVSVIYSGGSTFYADSVKGRFTISRDNSKNTLYLQMNSLRPEDTAVYYCAREGRIAATGYGMDVWGQGTTVTVSS
VL: not shown
B17: mAb10989 (antibody, V domains shown)
VH: QVQLVQSGAEVKKPGASVKVSCKASGYIFTGYYMHWVRQAPGQGLEWMGWINPNSGGANYAQKFQGRVTLTRDTSITTVYMELSRLRFDDTAVYYCARGSRYDWNQNNWFDPWGQGTLVTVSS
VL: QSALTQPASVSGSPGQSITISCTGTSSDVGTYNYVSWYQQHPGKAPKLMIFDVSNRPSGVSDRFSGSKSGNTASLTISGLQAEDEADYYCSSFTTSSTVVFGGGTKLTVLG
B18: mAb10964 (antibody, V domains shown)
VH: QVQLQESGPGLVKPSETLSLTCTVSGGSINNYYWIWIRQPPGKGLEWIGYIYHSGSTNYNPSLKSRVTISVDTSKNQFSLKVSSVTAADTAVYYCANMVRGVYEDDYWGQGTLVTVSS
VL: DIQMTQSPSSLSASVGDRVTITCRASQSISNYLNWYQQKPGKAPKLLIFAASSLRSGVPSRFSGSGSGTDFTLTISSLHPEDFATYYCQQNYNTPLTFGPGTKVDIKR
B19: mAb10984 (antibody, V domains shown)
VH: EVQLVESGGGLVQPGGSLRLSCAASGLTVNRNYMSWVRQAPGKGLEWVSLIYSGGSTYYADSVKGRFTISRDNSKNTLYLQMNSLRLEDTAVYYCARGELGIPYGMDVWGQGTTVTVSS
VL: QSVLTQPPSVSAAPGQKVTISCSGSSSNIGNNYVSWYQQLPGTAPKLLIYDNNKRPSGIPDRFSGSKSGTSATLGITGLQTGDEADYYCGTWDSSLSAGVFGGGTKLTVLG

molecular target: SARS-COV-2 spike protein receptor binding domain (amino acids Arg319 to Phe541) expressed with the F (SARS-CoV-2); assay: not given

Binder	Kd [nM]	koff [s⁻¹]	kon [M⁻¹ s⁻¹]	t½ [h]
B1	1.58	0.000521	330000	0.37
B2	≤ 0.0236			≥ 19.2
B3	16.7			0.0433
B4	0.191	6.63e-05	346000	2.9
B5	≤ 0.0532			≥ 19.2
B6	0.715	0.000115	161000	1.67

molecular target: SARS-COV-2 RBD-hFc (SARS-CoV-2); assay: not given

Binder	IC50 (read off the curve) [nM]
B7	~0.1

molecular target: Bt-SARS-CoV-2 Spike Protein (RBD) (R319-F541).mFc (SARS-CoV-2); assay: Luminex beads, supernatant

Binder	MFI [MFI]
B8	16700
B9	10600
B10	12900
B11	13700
B12	16800
B13	18400
B14	16800
B15	15500
B16	17900
B17	11200
B18	19200
B19	17100

molecular target: SARS-CoV-2 Spike Protein (RBD) (R319-F541).mFc (SARS-CoV-2); assay: Luminex beads, supernatant

Binder	MFI [MFI]
B8	28700
B9	18700
B10	28300
B11	27100
B12	29600
B13	31300
B14	30800
B15	29400
B16	30400
B17	19600
B18	32400
B19	28400

molecular target: SARS-CoV-2 Spike Protein (RBD) (R319-F541).hFc (SARS-CoV-2); assay: Luminex beads, supernatant

Binder	MFI [MFI]
B8	30000
B9	22600
B10	30200
B11	29600
B12	28700
B13	31800
B14	31200
B15	31100
B16	30800
B17	22400
B18	33100
B19	28400
